Values of other authors as cited in PMC4884208.

Tests used:
Experiment in all cases: UV-vis
Tyr52 = tested on: Tyr52
Tyr22 = tested on: Tyr22
Tyr25 = tested on: Tyr25
Tyr117 = tested on: Tyr117
Tyr73 = tested on: Tyr73
Tyr28 = tested on: Tyr28
Tyr113 = tested on: Tyr113
Tyr75 = tested on: Tyr75
Tyr36 = Tyr36 (UniProt position 55, FHTSGYDTQAI); conditions: 25.0 C, 0.5 M Gdn-HCl
Tyr18 = Tyr18 (UniProt position 37, KDLKGYGGVSL); conditions: 25.0 C, 0.5 M Gdn-HCl
Tyr103 = Tyr103 (UniProt position 122, KVGINYWLAHK); conditions: 25.0 C, 0.5 M Gdn-HCl
Tyr50 = Tyr50 (UniProt position 69, NDSTEYGLFQI); conditions: 25.0 C, 0.5 M Gdn-HCl

**Q.** Which results are given for “Vipoxin neurotoxic phospholipase A2 (basic PLA2 subunit of vipoxin) (Vipera ammodytes meridionalis (inferred; organism not stated in the article))”?
**A.** pKa (Tyr52): 12.17; pKa (Tyr22): 10.45; pKa (Tyr25): 13.23; pKa (Tyr117): 10.45; pKa (Tyr73): 13.23; pKa (Tyr28): 12.17; pKa (Tyr113): 12.17; pKa (Tyr75): 10.45

**Q.** Which pKa (Tyr36; alkaline-denatured (D) state) does the source give for alpha-lactalbumin (Bos taurus) here?
**A.** 10.3

**Q.** And the pKa (Tyr36; native (N) state)?
**A.** 11.8

**Q.** What about the pKa (Tyr18; alkaline-denatured (D) state) of the same substance?
**A.** 10.3

**Q.** What about the pKa (Tyr18; native (N) state) of the same substance?
**A.** 11.8

**Q.** What about the pKa (Tyr103; alkaline-denatured (D) state) of the same substance?
**A.** 10.3

**Q.** What about the pKa (Tyr103; native (N) state) of the same substance?
**A.** 10.5

**Q.** And the pKa (Tyr50; alkaline-denatured (D) state)?
**A.** 10.3

**Q.** What about the pKa (Tyr50; native (N) state) of the same substance?
**A.** 12.7
